Data taken from JP2020188737A.

Key:
[1] = target: ヒトFcγRIIIaを固定化した担体(分離剤)を詰めたカラム(FcR9_Fカラム、WO2018/150973号の実施例5に記載); assay: FcγRIIIa affinity chromatography (FcR9_F column), peak area share; antibody from 9-day jar fermenter batch culture with 1 mM L-glutamine
[2] = target: ヒトFcγRIIIaを固定化した担体(分離剤)を詰めたカラム(FcR9_Fカラム、WO2018/150973号の実施例5に記載); assay: FcγRIIIa affinity chromatography (FcR9_F column), peak area share; antibody from 9-day jar fermenter batch culture with 10 mM L-glutamine

- ピーク1(結合力が弱いピーク)の面積割合 [1]: 25%
- ピーク3(結合力が強いピーク)の面積割合 [1]: 36%
- ピーク1(結合力が弱いピーク)の面積割合 [2]: 42.3%
- ピーク3(結合力が強いピーク)の面積割合 [2]: 22.1%
B1: 抗インターロイキン6レセプター(IL−6R)抗体 (antibody, human IgG1, V domains shown)
VH: QVQLQESGPGLVRPSQTLSLTCTVSGYSITSDHAWSWVRQPPGRGLEWIGYISYSGITTYNPSLKSRVTMLRDTSKNQFSLRLSSVTAADTAVYYCARSLARTTAMDYWGQGSLVTVSS
VL: DIQMTQSPSSLSASVGDRVTITCRASQDISSYLNWYQQKPGKAPKLLIYYTSRLHSGVPSRFSGSGSGTDFTFTISSLQPEDIATYYCQQGNTLPYTFGQGTKVEIK
